A word on the Kd: it is the concentration at which binding is half-saturated.

Data on one substance can be found in paper PMC5477539.

The data set concerns DNA polymerase III core (alpha-epsilon-theta) (Escherichia coli). Briefly: single-molecule optical tweezers; fit of exonucleolysis initiation rate vs protein concentration (two-step model). The conditions noted are these: biotinylated oligonucleotide ligated at one end; Optical tweezers buffer, salt, pH and temperature not given in the material; constant template force (55 pN for k2).

Turning to “primer-template junction of single stretched DNA (8.1 kbp pBACgus11 construct or 38.5 kbp lambda DNA)”, the Kd was found to be 130 nM.
